Laboratory results taken from patent publication US20130040837, “APTAMER CELL COMPOSITIONS” (BRIGHAM AND WOMEN'S HOSPITAL, INC., published 2013).

Experiments:
[1] = target: T1, PDGF-BB (platelet-derived growth factor) (UniProt P01127 P01127:82-190); test: fluorescence quenching by flow cytometry on beads and MSCs, 10 nM PDGF; detection range several hundred pM to low nM on cells in PBS; best in PBS, then PBS with 0.9 mM CaCl2 and 0.5 mM MgCl2, then medium; conditions: chain copies: 2 (inferred); label: 5'-FAM; complementary strand 5'-biotin, 3'-dabcyl
Protocol: FIGS. 11C-11D are bar graphs depicting the performance of sensors 1 and 2 immobilized on streptavidin beads for detection of PDGF in PBS (11C) and PBS with 0.9 mM CaCl₂ and 0.5 mM MgCl₂ (11D) were studied by flow cytometry. Upon adding PDGF (10 nM), the FAM green signal is quenched. Sensor 2 functions better than sensor 1 in PBS with and without Ca/Mg.
A PDGF aptamer sensor was synthesized with FAM at the 5′ end of the aptamer and a quencher, dabcyl, at the 3′ end of the complementary strand, with a biotin molecule attached at the other end (FIG. 11A). Upon binding to the target PDGF, the aptamer undergoes a conformational change which brings FAM and dabcyl closer to each other and the fluorescence of FAM is quenched. One base pair C-G of the aptamer sensor was eliminated by changing a C base to A base (FIG. 11B). Therefore, sensor 2 has less nonspecific folding and better performance in the presence of divalent metal ions than sensor 1. Sensor 1 and 2 were immobilized on streptavidin beads, and their performances in PBS (FIG. 11C) and PBS with Ca/Mg (FIG. 11D) were studied by flow cytometry and microscopy (FIGS. 12A-12B). Upon adding PDGF (10 nM), the FAM green signal was quenched. Sensor 2 functioned better than sensor 1 in PBS with and without Ca/Mg.

P-selectin = P-selectin (UniProt P16109 P16109:42-771); test: specificity control, static adhesion normalised to L-Aptamer-MSC on L-selectin; conditions: tags: P-selectin-Fc, coated on surface; chain copies: 2; label: 5'-biotin
L-selectin [2] = target: T2, L-selectin (UniProt P14151 P14151:39-332); test: specificity control, P-Aptamer-MSC on L-selectin; conditions: tags: coated on surface; label: 5'-biotin
T2 sequence: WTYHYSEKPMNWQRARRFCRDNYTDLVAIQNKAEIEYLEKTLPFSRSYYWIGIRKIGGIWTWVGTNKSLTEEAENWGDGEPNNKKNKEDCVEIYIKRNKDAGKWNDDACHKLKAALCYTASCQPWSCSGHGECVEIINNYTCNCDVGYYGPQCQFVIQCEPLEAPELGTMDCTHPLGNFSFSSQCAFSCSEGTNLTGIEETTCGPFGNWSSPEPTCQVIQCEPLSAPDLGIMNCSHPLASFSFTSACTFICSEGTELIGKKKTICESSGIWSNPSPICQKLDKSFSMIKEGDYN

[3] = target: T1, PDGF-BB (platelet-derived growth factor); test: Cy3 quenched and Cy5 enhanced with 10 nM PDGF; solution in PBS and on MSCs in PBS, PBS with Ca/Mg and medium; conditions: chain copies: 2 (inferred); label: 5'-Cy5; complementary strand 5'-biotin, internal Cy3
L-selectin [4] = target: T2, L-selectin; test: static adhesion normalised to L-Aptamer-MSC; PBS-MSC background 6.4±1.78; conditions: tags: coated on surface; label: 3'-biotin
Protocol: After we confirmed the successful conjugation and the availability of aptamers on the MSC surface, we investigated the interactions between L-Aptamer-MSCs and L-selectin coated surfaces under both static and flow conditions. For the static adhesion assay, aptamer modified and unmodified MSCs were incubated with L-selectin coated surfaces for 10 minutes, and unbound cells were then removed through rinsing.

T1 sequence (P01127 82-190, one chain of several): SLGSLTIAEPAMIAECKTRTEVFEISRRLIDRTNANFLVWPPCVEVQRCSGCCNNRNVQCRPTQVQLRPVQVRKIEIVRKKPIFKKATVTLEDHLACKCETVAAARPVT
P-selectin, sequence (P16109 42-771, one chain of several): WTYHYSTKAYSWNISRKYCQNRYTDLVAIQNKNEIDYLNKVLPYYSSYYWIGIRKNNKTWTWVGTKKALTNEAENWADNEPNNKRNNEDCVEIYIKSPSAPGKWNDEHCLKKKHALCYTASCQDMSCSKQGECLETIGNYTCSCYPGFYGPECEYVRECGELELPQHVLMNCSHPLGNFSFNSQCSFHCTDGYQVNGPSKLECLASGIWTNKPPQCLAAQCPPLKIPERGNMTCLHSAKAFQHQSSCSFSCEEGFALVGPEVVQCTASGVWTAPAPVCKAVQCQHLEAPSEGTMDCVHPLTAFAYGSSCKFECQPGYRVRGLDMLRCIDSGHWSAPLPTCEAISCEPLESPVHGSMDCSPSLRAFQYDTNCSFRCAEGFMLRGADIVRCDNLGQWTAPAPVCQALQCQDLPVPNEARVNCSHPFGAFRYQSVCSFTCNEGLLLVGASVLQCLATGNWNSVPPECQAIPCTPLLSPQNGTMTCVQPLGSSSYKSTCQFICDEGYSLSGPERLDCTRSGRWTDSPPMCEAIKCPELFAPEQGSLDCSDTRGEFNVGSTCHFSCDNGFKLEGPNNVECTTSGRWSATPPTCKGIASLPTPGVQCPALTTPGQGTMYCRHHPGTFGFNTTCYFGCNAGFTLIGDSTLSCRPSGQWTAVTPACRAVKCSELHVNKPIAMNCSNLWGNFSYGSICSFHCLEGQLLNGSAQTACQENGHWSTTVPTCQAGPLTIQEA

B1: PDGF quench sensor 2 (structured_DNA)
DNA 1: AAGGCTACGGCACGTAGAGCATCACCATGATCCTGTGTGGTCTATGTCGTCGTTCG
DNA 2: CGAACGACGACATAGACCACA
[1]
  binding result: binds

B2: L-selectin aptamer (ssDNA)
DNA: TAGCCAAGGTAACCAGTACAAGGTGCTAAACGTAATGGCTTCGGCTTAC
modifications: 3' inverted T
P-selectin
  binding result: no binding

B3: P-selectin aptamer (ssRNA)
RNA: CUCAACGAGCCAGGAACAUCGACGUCAGCAAACGCGAG
modifications: 2'-F on C and U
L-selectin [2]
  binding result: no binding

B4: PDGF FRET sensor 5 (structured_DNA)
DNA 1: AAGGCTACGGCACGTAGAGCATCACCATGATCCTGTGTGGTCTGTGTCG
DNA 2: CGACACAGACCACA
[3]
  binding result: binds

B5: scrambled sequence control DNA (ssDNA)
DNA: GATGTAGGGACAGTCAAATGGAGTGGTTCAACCGCCCATCTTCAACAAT
L-selectin [4]
  binding result: no binding
